# Molecular target: HIV-1 Env protein of virus strain 89-F1_2_25 (HIV-1)
# Assay: cell-based or functional assay
row,Binder,"IC50, TZM-bl pseudovirus neutralization assay [ng/mL]"
1,"antibody 1-18 (antibody, V domains shown) VH: QGRLFQSGAEVKRPGASVRISCRADDDPYTDDDTFTKYWTHWIRQAPGQRPEWLGVISPHFARPIYSYKFRDRLTLTRDSSLTAVYLELKGLQPDDSGIYFCARDPFGDRAPHYNYHMDVWGGGTAVIVSS VL: EVVLTQSPAILSVSPGDRVILSCRASQGLDSSHLAWYRFKRGQIPTLVIFGTSNRARGTPDRFSGSGSGADFTLTISRVEPEDFATYYCQRYGGTPITFGGGTTLDKK",7
2,"antibody 1-55 (antibody, V domains shown) VH: QRRLFQSGTEVKRPGASVKISCRADDDPYTDDDTFTKYYTHWIRQAPGQPPEWLGVISPHFARPIYSYKFRDRLTLTRDSSLTAVYFELRGLQPDDTGIYFCARDPFGDMYPHYNYHMDVWGGGTTVIVSA VL: EAVLTQSPAILSVSPGDRVILSCKASEGLSSSDLAWYRFKGGQIPTLVIFGASNRARGTPDRFSGSGSGTDFTLTINRVEPEDFATYYCQRYGGTPITFGGGTTLDKK",14
3,"antibody 2-12 (antibody, V domains shown) VH: QLVQSGGGVRRPGASVKISCETPEDTFTKYWLHWLRQAPGQGLEWMGVVSPHGGRPMFAFEFRDRLTLTRDIHTTTHFMELRGLTSDDTAVYYCARDPFGETFRGHDQPYRMDVWGGGTTIVVSS VL: EPVLTQSPGTLSVSPGEGATLSCRARQGFSADHVAWFQKKPGRPPRLLIFEASRRASGTPERFSGSGSGPEYTLTITRVEAEDFAVYYCQSYGSITPLVFGGGTRVDVK",6

# Source: patent US20240376183A1 (UNIVERSIT T ZU K LN, published 2024)
